Numbering of substitutions follows the chain as printed. Numbers in names are those of the source. One block for each binder: values may come before it.
Biological target: T1, TNFR1 (Homo sapiens, UniProt P19438)
T1 chain: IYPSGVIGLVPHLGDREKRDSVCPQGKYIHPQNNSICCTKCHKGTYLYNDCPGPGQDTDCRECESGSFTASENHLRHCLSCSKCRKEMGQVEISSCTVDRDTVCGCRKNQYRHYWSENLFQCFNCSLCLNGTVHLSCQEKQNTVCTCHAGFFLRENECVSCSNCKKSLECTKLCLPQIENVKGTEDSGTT
Experiment: yeast display SC50

apparent Kd (screen): 2.73 nM
B1: S80F (designed binder)
chain: SMEEEVEKAAKEYEKKKKEAIEKHLEKLKAKDKEAAERFLKELEEAAKEYAKDEAKTMSEEEAKRRAKKYKEKVLLSELFEEEQKEIKEAEEKLVRTILKYVEEAAK

apparent Kd (screen): 0.446 nM
B2: E44V (designed binder)
chain: B1 chain with E44V, F80S

apparent Kd (screen): 3.3 nM
B3: E83P (designed binder)
chain: B1 chain with F80S, E83P

apparent Kd (screen): 1.54 nM
B4: K107N (designed binder)
chain: B1 chain with F80S, K107N

apparent Kd (screen): 0.446 nM
B5: E5T (designed binder)
chain: B1 chain with E5T, F80S

apparent Kd (screen): 0.539 nM
B6: A20I (designed binder)
chain: B1 chain with A20I, F80S

apparent Kd (screen): 0.446 nM
B7: M2W (designed binder)
chain: B1 chain with M2W, F80S

apparent Kd (screen): 0.79 nM
B8: K33I (designed binder)
chain: B1 chain with K33I, F80S

apparent Kd (screen): 1.69 nM
B9: T97E (designed binder)
chain: B1 chain with F80S, T97E

apparent Kd (screen): 7.78 nM
B10: E92P (designed binder)
chain: B1 chain with F80S, E92P

apparent Kd (screen): 0.49 nM
B11: E19H (designed binder)
chain: B1 chain with E19H, F80S

apparent Kd (screen): 0.79 nM
B12: L28T (designed binder)
chain: B1 chain with L28T, F80S

apparent Kd (screen): 0.869 nM
B13: K93H (designed binder)
chain: B1 chain with F80S, K93H

apparent Kd (screen): 1.05 nM
B14: L25G (designed binder)
chain: B1 chain with L25G, F80S

apparent Kd (screen): 0.539 nM
B15: K29R (designed binder)
chain: B1 chain with K29R, F80S

apparent Kd (screen): 16.7 nM
B16: L79D (designed binder)
chain: B1 chain with L79D, F80S

apparent Kd (screen): 0.869 nM
B17: L40Y (designed binder)
chain: B1 chain with L40Y, F80S

apparent Kd (screen): 2.05 nM
B18: E72Q (designed binder)
chain: B1 chain with E72Q, F80S

apparent Kd (screen): 0.49 nM
B19: A47R (designed binder)
chain: B1 chain with A47R, F80S

apparent Kd (screen): 0.539 nM
B20: E22H (designed binder)
chain: B1 chain with E22H, F80S

apparent Kd (screen): 0.869 nM
B21: K23M (designed binder)
chain: B1 chain with K23M, F80S

apparent Kd (screen): 0.49 nM
B22: I21C (designed binder)
chain: B1 chain with I21C, F80S

apparent Kd (screen): 0.49 nM
B23: E82S (designed binder)
chain: B1 chain with F80S, E82S

apparent Kd (screen): 29.5 nM
B24: E14F (designed binder)
chain: B1 chain with E14F, F80S

apparent Kd (screen): 0.277 nM
B25: K100G (designed binder)
chain: B1 chain with F80S, K100G

apparent Kd (screen): 0.593 nM
B26: S59A (designed binder)
chain: B1 chain with S59A, F80S

apparent Kd (screen): 0.49 nM
B27: K11S (designed binder)
chain: B1 chain with K11S, F80S

apparent Kd (screen): 1.69 nM
B28: I98A (designed binder)
chain: B1 chain with F80S, I98A

apparent Kd (screen): 1.05 nM
B29: H24R (designed binder)
chain: B1 chain with H24R, F80S

apparent Kd (screen): 3.3 nM
B30: E44W (designed binder)
chain: B1 chain with E44W, F80S

apparent Kd (screen): 0.49 nM
B31: K85T (designed binder)
chain: B1 chain with F80S, K85T

apparent Kd (screen): 3.63 nM
B32: V95K (designed binder)
chain: B1 chain with F80S, V95K

apparent Kd (screen): 1.05 nM
B33: E45Q (designed binder)
chain: B1 chain with E45Q, F80S

apparent Kd (screen): 0.49 nM
B34: E103N (designed binder)
chain: B1 chain with F80S, E103N

apparent Kd (screen): 0.593 nM
B35: K85R (designed binder)
chain: B1 chain with F80S, K85R

apparent Kd (screen): 9.41 nM
B36: E42T (designed binder)
chain: B1 chain with E42T, F80S

apparent Kd (screen): 0.869 nM
B37: L76M (designed binder)
chain: B1 chain with L76M, F80S

apparent Kd (screen): 0.49 nM
B38: E86D (designed binder)
chain: B1 chain with F80S, E86D

apparent Kd (screen): 2.73 nM
B39: V6M (designed binder)
chain: B1 chain with V6M, F80S

apparent Kd (screen): 1.05 nM
B40: E92N (designed binder)
chain: B1 chain with F80S, E92N

apparent Kd (screen): 1.16 nM
B41: S59Q (designed binder)
chain: B1 chain with S59Q, F80S

apparent Kd (screen): 1.54 nM
B42: E5Y (designed binder)
chain: B1 chain with E5Y, F80S

apparent Kd (screen): 1.54 nM
B43: E60S (designed binder)
chain: B1 chain with E60S, F80S

From publication PMC12416549 (2024)
